Data as given in US20250115678A1 (AstraZeneca / MedImmune, published 2025).

Assays:
[1] = biological target: T1, human LRRC15 recombinant extracellular domain protein (human, UniProt Q8TF66 22-538); assay: SPR single-cycle kinetics (Biacore 8K+), TCE captured on Protein G chip, LRRC15 ECD as analyte, 1:1 fit, average of 3 or 4 replicates
T1 construct: extracellular domain; also called LRRC15 human
T1 sequence (looked up): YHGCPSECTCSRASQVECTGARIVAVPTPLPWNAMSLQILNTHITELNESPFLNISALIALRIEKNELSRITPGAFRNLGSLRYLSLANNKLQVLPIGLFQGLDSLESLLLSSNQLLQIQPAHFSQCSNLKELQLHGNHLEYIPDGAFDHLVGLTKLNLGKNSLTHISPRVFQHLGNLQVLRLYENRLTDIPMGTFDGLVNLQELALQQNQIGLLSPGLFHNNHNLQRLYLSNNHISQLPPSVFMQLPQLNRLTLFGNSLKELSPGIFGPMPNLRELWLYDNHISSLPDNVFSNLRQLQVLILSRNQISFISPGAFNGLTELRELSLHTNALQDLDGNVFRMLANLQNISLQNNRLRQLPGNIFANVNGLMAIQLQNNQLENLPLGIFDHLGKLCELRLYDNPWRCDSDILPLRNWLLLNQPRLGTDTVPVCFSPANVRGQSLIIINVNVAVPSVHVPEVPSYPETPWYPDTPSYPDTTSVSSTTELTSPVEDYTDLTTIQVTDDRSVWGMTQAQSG
Text: (§1) The fully corrected binding data were globally fitted to a 1:1 binding model to determine the KD using the Biacore™ Insight Evaluation Software (CYTIVA). Coloured sensorgram trace represents the raw data and black line the global 1:1 fit to that data. Values for kinetics parameters is shown in Table 8 are averages for 3 or 4 replicate sets of measurements.

[2] = biological target: T2, cyno LRRC15 recombinant extracellular domain protein (cyno, UniProt G7NYR2 22-538); assay: as above
T2 construct: extracellular domain; also called LRRC15 cyno
Text: as §1

[3] = biological target: T3, human EphB6 on transiently transfected Ad293 cells (human, UniProt O15197 32-1021); assay: Flow cytometry on Ad293 cells transiently transfected with human EphB6 (off-target binding)
T3 construct: whole, on cells; also called EphB6-expressing cells
T3 sequence (looked up): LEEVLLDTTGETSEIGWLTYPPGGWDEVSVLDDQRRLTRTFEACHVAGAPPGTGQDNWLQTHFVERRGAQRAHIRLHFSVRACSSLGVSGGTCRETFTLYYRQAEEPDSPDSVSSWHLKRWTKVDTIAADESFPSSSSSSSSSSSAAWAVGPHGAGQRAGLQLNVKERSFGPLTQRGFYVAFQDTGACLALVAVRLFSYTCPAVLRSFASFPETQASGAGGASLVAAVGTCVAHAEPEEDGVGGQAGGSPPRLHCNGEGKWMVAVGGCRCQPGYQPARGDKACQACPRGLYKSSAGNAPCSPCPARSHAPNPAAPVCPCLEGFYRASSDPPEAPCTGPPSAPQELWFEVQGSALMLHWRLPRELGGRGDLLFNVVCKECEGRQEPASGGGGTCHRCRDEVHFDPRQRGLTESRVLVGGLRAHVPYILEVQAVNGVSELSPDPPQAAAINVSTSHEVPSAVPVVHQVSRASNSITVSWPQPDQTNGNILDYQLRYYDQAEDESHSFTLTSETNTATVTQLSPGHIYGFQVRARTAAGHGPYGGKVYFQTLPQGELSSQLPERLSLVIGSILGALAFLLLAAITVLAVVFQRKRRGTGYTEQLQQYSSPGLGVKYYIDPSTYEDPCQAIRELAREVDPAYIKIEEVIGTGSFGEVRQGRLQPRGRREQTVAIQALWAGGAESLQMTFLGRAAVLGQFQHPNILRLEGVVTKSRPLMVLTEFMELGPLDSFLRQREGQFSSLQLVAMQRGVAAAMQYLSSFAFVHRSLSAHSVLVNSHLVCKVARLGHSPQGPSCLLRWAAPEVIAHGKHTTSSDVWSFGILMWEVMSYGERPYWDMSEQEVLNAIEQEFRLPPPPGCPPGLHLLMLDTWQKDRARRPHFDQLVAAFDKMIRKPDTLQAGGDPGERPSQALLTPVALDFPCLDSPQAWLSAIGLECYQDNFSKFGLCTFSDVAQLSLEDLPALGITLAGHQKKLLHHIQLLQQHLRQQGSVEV
Text: Ad293 cells were transiently transfected with a plasmid expressing human EphB6.

Binder	Kd [1] [nM]	Kd [2] [nM]	binding result [3]
TPP-46959 (other, T-cell engager in the CD8/TCR format: 2x LRRC15 Fab, 1x TCR VHH, 1x CD8 VHH; Residue 55 of L-CDR2 is E) light: not shown heavy 1: EVQLVQSGAEVKKPGASVKVSCKASGYKFSSYWIEWVKQAPGQGLEWIGEILPGSDTTNYAQKFQDRVTFTSDTSISTAYMELSRLRSDDTAVYYCARDRGNYRAWFGYWGQGTLVTVSSASTKGPSVFPLAPSSKSTSGGTAALGCLVKDYFPEPVTVSWNSGALTSGVHTFPAVLQSSGLYSLSSVVTVPSSSLGTQTYICNVNHKPSNTKVDKRVEPKSCDKTGGSEVQLVESGGGLVQPGGSLRLSCVASGDVHKINFLGWYRQAPGKEREKVAHISIGDQTDYADSAKGRFTISRDESKNMVYLQMNSLKPEDTAVYFCRAFSRIYPYDYWGQGTLVTVSSGGGGSTHTCPPCPAPPVAGPSVFLFPPKPKDTLMISRTPEVTCVVVDVKHEDPEVKFNWYVDGVEVHNAKTKPREEQYNSTYRVVSVLTVLHQDWLNGKEYKCKVSNKALPAPIEKTISKAKGQPREPQVCTLPPSREEMTKNQVSLSCAVKGFYPSDIAVEWESNGQPENNYKTTPPVLDSDGSFFLVSKLTVDKSRWQQGNVFSCSVMHEALHNRFTQKSLSLSPGK heavy 2: EVQLVQSGAEVKKPGASVKVSCKASGYKFSSYWIEWVKQAPGQGLEWIGEILPGSDTTNYAQKFQDRVTFTSDTSISTAYMELSRLRSDDTAVYYCARDRGNYRAWFGYWGQGTLVTVSSASTKGPSVFPLAPSSKSTSGGTAALGCLVKDYFPEPVTVSWNSGALTSGVHTFPAVLQSSGLYSLSSVVTVPSSSLGTQTYICNVNHKPSNTKVDKRVEPKSCDKTGGSEVQLLESGGGLVQPGGSLRLSCAASGFTFTDYAIGWFRQAPGKEREGVSCIRVSDGSTYYADSVKGRFTISRDSSKNTLYLQMNSLRAEDTAVYYCAAGSLYTCVQSIVWPARPYYDMDYWGQGTLVTVSSGGGGSTHTCPPCPAPPVAGPSVFLFPPKPKDTLMISRTPEVTCVVVDVKHEDPEVKFNWYVDGVEVHNAKTKPREEQYNSTYRVVSVLTVLHQDWLNGKEYKCKVSNKALPAPIEKTISKAKGQPREPQVYTLPPCREEMTKNQVSLWCLVKGFYPSDIAVEWESNGQPENNYKTTPPVLDSDGSFFLYSKLTVDKSRWQQGNVFSCSVMHEALHNHYTQKSLSLSPGK	1.34	3	binds
TPP-46957 (other, T-cell engager in the CD8/TCR format: 2x LRRC15 Fab, 1x TCR VHH, 1x CD8 VHH) light: not shown heavy 1: EVQLVQSGAEVKKPGASVKVSCKASGYKFSSYWIEWVKQAPGQGLEWIGEILPGSDTTNYAQQFQDRVTFTSDTSISTAYMELSRLRSDDTAVYYCARDRGNYRAWFGYWGQGTLVTVSSASTKGPSVFPLAPSSKSTSGGTAALGCLVKDYFPEPVTVSWNSGALTSGVHTFPAVLQSSGLYSLSSVVTVPSSSLGTQTYICNVNHKPSNTKVDKRVEPKSCDKTGGSEVQLVESGGGLVQPGGSLRLSCVASGDVHKINFLGWYRQAPGKEREKVAHISIGDQTDYADSAKGRFTISRDESKNMVYLQMNSLKPEDTAVYFCRAFSRIYPYDYWGQGTLVTVSSGGGGSTHTCPPCPAPPVAGPSVFLFPPKPKDTLMISRTPEVTCVVVDVKHEDPEVKFNWYVDGVEVHNAKTKPREEQYNSTYRVVSVLTVLHQDWLNGKEYKCKVSNKALPAPIEKTISKAKGQPREPQVCTLPPSREEMTKNQVSLSCAVKGFYPSDIAVEWESNGQPENNYKTTPPVLDSDGSFFLVSKLTVDKSRWQQGNVFSCSVMHEALHNRFTQKSLSLSPGK heavy 2: EVQLVQSGAEVKKPGASVKVSCKASGYKFSSYWIEWVKQAPGQGLEWIGEILPGSDTTNYAQQFQDRVTFTSDTSISTAYMELSRLRSDDTAVYYCARDRGNYRAWFGYWGQGTLVTVSSASTKGPSVFPLAPSSKSTSGGTAALGCLVKDYFPEPVTVSWNSGALTSGVHTFPAVLQSSGLYSLSSVVTVPSSSLGTQTYICNVNHKPSNTKVDKRVEPKSCDKTGGSEVQLLESGGGLVQPGGSLRLSCAASGFTFTDYAIGWFRQAPGKEREGVSCIRVSDGSTYYADSVKGRFTISRDSSKNTLYLQMNSLRAEDTAVYYCAAGSLYTCVQSIVWPARPYYDMDYWGQGTLVTVSSGGGGSTHTCPPCPAPPVAGPSVFLFPPKPKDTLMISRTPEVTCVVVDVKHEDPEVKFNWYVDGVEVHNAKTKPREEQYNSTYRVVSVLTVLHQDWLNGKEYKCKVSNKALPAPIEKTISKAKGQPREPQVYTLPPCREEMTKNQVSLWCLVKGFYPSDIAVEWESNGQPENNYKTTPPVLDSDGSFFLYSKLTVDKSRWQQGNVFSCSVMHEALHNHYTQKSLSLSPGK	2.27	4.55	binds
TPP-46956 (other, T-cell engager in the CD8/TCR format: 2x LRRC15 Fab, 1x TCR VHH, 1x CD8 VHH) light: not shown heavy 1: EVQLVQSGAEVKKPGASVKVSCKASGYKFSSYWIEWVKQAPGQGLEWIGEILPGSDTTNYAQNFQDRVTFTSDTSISTAYMELSRLRSDDTAVYYCARDRGNYRAWFGYWGQGTLVTVSSASTKGPSVFPLAPSSKSTSGGTAALGCLVKDYFPEPVTVSWNSGALTSGVHTFPAVLQSSGLYSLSSVVTVPSSSLGTQTYICNVNHKPSNTKVDKRVEPKSCDKTGGSEVQLVESGGGLVQPGGSLRLSCVASGDVHKINFLGWYRQAPGKEREKVAHISIGDQTDYADSAKGRFTISRDESKNMVYLQMNSLKPEDTAVYFCRAFSRIYPYDYWGQGTLVTVSSGGGGSTHTCPPCPAPPVAGPSVFLFPPKPKDTLMISRTPEVTCVVVDVKHEDPEVKFNWYVDGVEVHNAKTKPREEQYNSTYRVVSVLTVLHQDWLNGKEYKCKVSNKALPAPIEKTISKAKGQPREPQVCTLPPSREEMTKNQVSLSCAVKGFYPSDIAVEWESNGQPENNYKTTPPVLDSDGSFFLVSKLTVDKSRWQQGNVFSCSVMHEALHNRFTQKSLSLSPGK heavy 2: EVQLVQSGAEVKKPGASVKVSCKASGYKFSSYWIEWVKQAPGQGLEWIGEILPGSDTTNYAQNFQDRVTFTSDTSISTAYMELSRLRSDDTAVYYCARDRGNYRAWFGYWGQGTLVTVSSASTKGPSVFPLAPSSKSTSGGTAALGCLVKDYFPEPVTVSWNSGALTSGVHTFPAVLQSSGLYSLSSVVTVPSSSLGTQTYICNVNHKPSNTKVDKRVEPKSCDKTGGSEVQLLESGGGLVQPGGSLRLSCAASGFTFTDYAIGWFRQAPGKEREGVSCIRVSDGSTYYADSVKGRFTISRDSSKNTLYLQMNSLRAEDTAVYYCAAGSLYTCVQSIVWPARPYYDMDYWGQGTLVTVSSGGGGSTHTCPPCPAPPVAGPSVFLFPPKPKDTLMISRTPEVTCVVVDVKHEDPEVKFNWYVDGVEVHNAKTKPREEQYNSTYRVVSVLTVLHQDWLNGKEYKCKVSNKALPAPIEKTISKAKGQPREPQVYTLPPCREEMTKNQVSLWCLVKGFYPSDIAVEWESNGQPENNYKTTPPVLDSDGSFFLYSKLTVDKSRWQQGNVFSCSVMHEALHNHYTQKSLSLSPGK	2.24	4.8	binds
